# Reference: patent US20230391872A1 (ANAPTYSBIO, published 2023)
# Columns and labels:
# [1] = molecular target: T1, human BTLA on cells (stably transfected 293c18 cells; human peripheral blood T and B cells) (human, UniProt Q7Z6A9 31-289); experiment: flow cytometry (MFI DyL650) on gated CD4+ T cells of human PBMC, DyLight 650-labelled antibody, three-parameter fit [left panel (Naive CD4+ T cells]
# T1 construct: whole, on cells; the cells are named under assay; also called cell surface BTLA; full-length human BTLA
# Procedure: (§1) Human peripheral blood mononuclear cells (PBMCs) were isolated by Histopaque (Sigma-Aldrich) density-gradient centrifugation of normal donor blood obtained from the San Diego Blood Bank (San Diego, CA). PBMCs were washed and incubated at 2×10⁷ cells/ml in FACS buffer (PBS, 1% BSA, 0.02% sodium azide) with Human BD Fc Block (2.5 μg/1×10⁶ cells, BD Biosciences) and LIVE/DEAD® Fixable Yellow Dead Cell Stain (30 μl, ThermoFisher Scientific) for 10 minutes on ice. Cells were washed once in FACS buffer, resuspended in FACS buffer at 1×10⁷ cells/ml and the following phenotyping antibodies added: Alexa Fluor 488-anti-human CD3E clone SK7, Brilliant Violet 421-anti-human CD4 clone OKT4, Brilliant Violet 785-anti-human CD8 clone SK1, and Brilliant Violet 570-anti-human CD20 clone 2H7 (50 μl each; all from BioLegend, Inc.). […] Samples were washed twice in FACS buffer, resuspended in 150 μl/well FACS buffer, and analyzed for fluorescence on a NovoCyte Flow Cytometer (ACEA Biosciences, Inc.). Data were analyzed using NovoExpress Software (ACEA Biosciences, Inc.). Median fluorescence intensities of anti-BTLA or isotype staining on gated CD4⁺ T cells (FIG. 4), CD8⁺ T cells (FIG. 4), or CD20⁺ B cells (FIG. 4) were graphed and curves fit with log(agonist) vs. response (three parameters) least squares fit for EC₅₀ calculation in GraphPad Prism (GraphPad Software, Inc.).
# [2] = molecular target: T1, human BTLA on cells (stably transfected …); experiment: flow cytometry (MFI DyL650) on gated CD8+ T cells of human PBMC, DyLight 650-labelled antibody, three-parameter fit [middle panel (Naive CD8+ T cells]
# Procedure: as §1
# [3] = molecular target: T1, human BTLA on cells (stably transfected …); experiment: flow cytometry, DyLight 650-labeled 6G3 IgG4 on human peripheral blood CD8+ T cells
# Procedure: as §1, with “PBMCs” for “Human peripheral blood mononuclear cells (PBMCs) were isolated by Histopaque (Sigma-Aldrich) density-gradient centrifugation of normal donor blood obtained from the San Diego Blood Bank (San Diego, CA). PBMCs”
# [4] = molecular target: T1, human BTLA on cells (stably transfected …); experiment: flow cytometry, DyLight 650-labeled 6G3 IgG4 on human peripheral blood CD20+ B cells
# Procedure: as §1, with “PBMCs” for “Human peripheral blood mononuclear cells (PBMCs) were isolated by Histopaque (Sigma-Aldrich) density-gradient centrifugation of normal donor blood obtained from the San Diego Blood Bank (San Diego, CA). PBMCs”
binder,measurement,setting,value
"6G3 IgG4 anti-BTLA antibody (APE10840 / APE12839 / APE13308) (antibody, V domains shown, Humanized antibody from a mouse hybridoma, tested as human IgG4 (detected with anti-human kappa); Some assays used labelled lots (DyLight 650, AF647, biotin, DyL488); also called 6G3 antibody; APE10840.03) VH: QVQLVQSGAEVKKPGSSVKVSCKASGYVFSTSWMNWVRQAPGQGLEWMGRIYPGDADTNYVGKFKGRVTITADKSTTTAYMELSSLRSEDTAVYFCAKSGTFNFGNYRWYFDVWGKGTTVTVSS VL: AIQLTQSPSSLSASVGDRVTITCRVSENIYSHLAWYQQKPGKAPKLLIYAATNLALGVPSRFSGSGSGTDYTLTISSLQPEDFATYYCQLFWGPPLTFGGGTKVEIKR",EC50,[1],2.44 nM
same,EC50,[2],3.23 nM
same,EC50,[3],~3.2 nM
same,EC50,[4],~0.5 nM
